Key:
Assay in all cases: protein-fragment complementation
Cdc10 = Cdc10 (UniProt P25342)
Syp1 = Syp1 (UniProt P25623)
Bbc1 = Bbc1 (UniProt P47068)
Lsb3 = Lsb3 (UniProt P43603)
Bmh1 = Bmh1 (UniProt P29311)
Sla1 = Sla1 (UniProt P32790)
Yor1 = Yor1 (UniProt P53049)
Ssa1 = Ssa1 (UniProt P10591)
Pab1 = Pab1 (UniProt P04147)
Arc40 = Arc40 (UniProt P38328)
Tif4631 = Tif4631 (UniProt P39935)
Nap1 = Nap1 (UniProt P25293)
Ygl242c = Ygl242c (UniProt P53066)
Smi1 = Smi1 (UniProt P32566)
Las17 = Las17 (UniProt Q12446)
Tdh3 = Tdh3 (UniProt P00359)
Arc18 = Arc18 (UniProt Q05933)
Ssz1 = Ssz1 (UniProt P38788)
Sla2 = Sla2 (UniProt P33338)
Cmd1 = Cmd1 (UniProt P06787)
Chc1 = Chc1 (UniProt P22137)
Aim21 = Aim21 (UniProt P40563)
Abp1 = Abp1 (UniProt P15891)
Ssb1 = Ssb1 (UniProt P11484)
Pfk1 = Pfk1 (UniProt P16861)
Arc19 = Arc19 (UniProt P33204)
Sbp1 = Sbp1 (UniProt P10080)
Sfk1 = Sfk1 (UniProt P35735)
Osh2 = Osh2 (UniProt Q12451)
Pkh2 = target: Pkh2
Sac6 = Sac6 (UniProt P32599)
Mid2 = Mid2 (UniProt P36027)
Rvs167 = Rvs167 (UniProt P39743)
Bzz1 = Bzz1 (UniProt P38822)
Hsp104 = Hsp104 (UniProt P31539)
Pan1 = Pan1 (UniProt P32521)
Cdc3 = Cdc3 (UniProt P32457)
Hek2 = Hek2 (UniProt P38199)
Srv2 = Srv2 (UniProt P17555)
Myo5 = Myo5 (UniProt Q04439)
Arc15 = Arc15 (UniProt P40518)
Ssb2 = Ssb2 (UniProt P40150)
Ste20 = Ste20 (UniProt Q03497)
Ysc84 = Ysc84 (UniProt P32793)
Vrp1 = Vrp1 (UniProt P37370)

UniProt P40150, sequence (P40150 whole entry): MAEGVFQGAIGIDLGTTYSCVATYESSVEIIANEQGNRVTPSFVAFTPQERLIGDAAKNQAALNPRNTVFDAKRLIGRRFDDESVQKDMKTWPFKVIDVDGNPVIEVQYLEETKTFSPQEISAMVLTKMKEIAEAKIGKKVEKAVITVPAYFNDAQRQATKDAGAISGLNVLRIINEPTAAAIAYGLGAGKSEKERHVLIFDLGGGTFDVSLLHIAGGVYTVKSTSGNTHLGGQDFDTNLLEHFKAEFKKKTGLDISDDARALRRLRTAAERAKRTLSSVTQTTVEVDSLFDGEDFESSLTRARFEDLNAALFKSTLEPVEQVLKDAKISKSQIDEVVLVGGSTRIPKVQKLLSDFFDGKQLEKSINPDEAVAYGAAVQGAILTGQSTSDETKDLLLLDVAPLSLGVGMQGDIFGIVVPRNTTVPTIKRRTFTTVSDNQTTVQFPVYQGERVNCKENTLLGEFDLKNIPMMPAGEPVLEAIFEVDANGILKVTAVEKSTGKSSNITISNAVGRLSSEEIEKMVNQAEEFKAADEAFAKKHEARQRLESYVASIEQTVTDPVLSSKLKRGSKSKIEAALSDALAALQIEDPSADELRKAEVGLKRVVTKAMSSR
UniProt P32599, sequence (P32599 whole entry): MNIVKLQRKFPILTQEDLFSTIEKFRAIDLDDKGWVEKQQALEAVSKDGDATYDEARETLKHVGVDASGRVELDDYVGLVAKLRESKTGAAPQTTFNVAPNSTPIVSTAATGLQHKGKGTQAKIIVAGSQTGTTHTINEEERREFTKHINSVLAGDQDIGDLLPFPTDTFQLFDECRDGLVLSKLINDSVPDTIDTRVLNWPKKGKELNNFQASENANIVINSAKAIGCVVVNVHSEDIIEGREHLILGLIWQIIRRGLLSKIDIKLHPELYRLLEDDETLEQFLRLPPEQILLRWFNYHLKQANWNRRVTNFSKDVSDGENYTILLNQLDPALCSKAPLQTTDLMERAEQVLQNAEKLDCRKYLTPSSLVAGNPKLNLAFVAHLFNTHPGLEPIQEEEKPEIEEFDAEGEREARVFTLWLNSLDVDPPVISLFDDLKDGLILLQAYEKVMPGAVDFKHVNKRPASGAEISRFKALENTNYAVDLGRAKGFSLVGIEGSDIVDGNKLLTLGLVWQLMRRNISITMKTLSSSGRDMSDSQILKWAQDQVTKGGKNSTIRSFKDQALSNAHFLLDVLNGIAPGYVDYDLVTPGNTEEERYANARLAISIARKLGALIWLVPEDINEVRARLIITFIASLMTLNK
UniProt P40563, sequence (P40563 whole entry): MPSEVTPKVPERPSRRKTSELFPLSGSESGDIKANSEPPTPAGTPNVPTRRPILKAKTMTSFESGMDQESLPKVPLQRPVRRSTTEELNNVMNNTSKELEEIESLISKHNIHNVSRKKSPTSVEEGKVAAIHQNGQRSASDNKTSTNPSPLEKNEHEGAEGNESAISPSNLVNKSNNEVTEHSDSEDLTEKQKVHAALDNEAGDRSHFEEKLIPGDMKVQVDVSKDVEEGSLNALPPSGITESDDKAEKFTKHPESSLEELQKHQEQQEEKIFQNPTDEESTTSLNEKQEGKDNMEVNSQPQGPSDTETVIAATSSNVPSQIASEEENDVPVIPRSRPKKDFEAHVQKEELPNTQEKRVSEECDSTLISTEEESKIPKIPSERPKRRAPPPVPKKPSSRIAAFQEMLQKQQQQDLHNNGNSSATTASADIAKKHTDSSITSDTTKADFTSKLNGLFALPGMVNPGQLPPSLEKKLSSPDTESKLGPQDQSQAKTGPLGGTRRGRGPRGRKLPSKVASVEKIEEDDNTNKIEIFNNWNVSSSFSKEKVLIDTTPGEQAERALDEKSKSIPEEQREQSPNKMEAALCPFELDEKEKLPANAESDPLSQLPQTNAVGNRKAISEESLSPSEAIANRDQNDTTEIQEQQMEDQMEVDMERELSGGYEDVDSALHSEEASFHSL
UniProt P47068, sequence (P47068 whole entry): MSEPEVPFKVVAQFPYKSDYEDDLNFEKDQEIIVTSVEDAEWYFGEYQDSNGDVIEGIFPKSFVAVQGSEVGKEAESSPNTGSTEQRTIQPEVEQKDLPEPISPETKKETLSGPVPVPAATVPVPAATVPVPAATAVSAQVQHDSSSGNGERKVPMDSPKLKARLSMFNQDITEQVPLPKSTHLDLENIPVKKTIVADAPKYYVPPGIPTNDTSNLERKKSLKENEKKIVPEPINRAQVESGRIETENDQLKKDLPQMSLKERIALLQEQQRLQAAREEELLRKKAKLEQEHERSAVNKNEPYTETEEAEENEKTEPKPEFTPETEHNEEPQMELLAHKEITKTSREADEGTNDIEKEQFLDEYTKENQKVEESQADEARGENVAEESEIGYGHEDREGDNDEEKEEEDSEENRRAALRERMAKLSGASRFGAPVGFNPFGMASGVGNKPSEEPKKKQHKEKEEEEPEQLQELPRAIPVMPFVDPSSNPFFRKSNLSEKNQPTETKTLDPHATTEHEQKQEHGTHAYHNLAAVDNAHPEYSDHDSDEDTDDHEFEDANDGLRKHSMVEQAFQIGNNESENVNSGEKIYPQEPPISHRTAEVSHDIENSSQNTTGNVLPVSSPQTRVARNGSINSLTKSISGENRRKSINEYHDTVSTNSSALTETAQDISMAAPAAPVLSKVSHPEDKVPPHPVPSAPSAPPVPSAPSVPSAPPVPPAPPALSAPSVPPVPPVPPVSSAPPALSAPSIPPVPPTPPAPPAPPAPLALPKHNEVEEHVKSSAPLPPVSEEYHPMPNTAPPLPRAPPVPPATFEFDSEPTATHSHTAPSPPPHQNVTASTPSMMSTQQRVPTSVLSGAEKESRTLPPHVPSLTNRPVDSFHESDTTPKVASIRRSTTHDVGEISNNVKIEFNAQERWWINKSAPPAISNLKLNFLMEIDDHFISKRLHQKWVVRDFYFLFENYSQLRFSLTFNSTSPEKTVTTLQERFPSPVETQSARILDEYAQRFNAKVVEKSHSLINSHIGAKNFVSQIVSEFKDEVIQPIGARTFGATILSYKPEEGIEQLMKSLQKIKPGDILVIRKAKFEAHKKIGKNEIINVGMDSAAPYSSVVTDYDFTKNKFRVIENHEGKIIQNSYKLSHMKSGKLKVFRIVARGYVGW
UniProt P22137, sequence (P22137 whole entry): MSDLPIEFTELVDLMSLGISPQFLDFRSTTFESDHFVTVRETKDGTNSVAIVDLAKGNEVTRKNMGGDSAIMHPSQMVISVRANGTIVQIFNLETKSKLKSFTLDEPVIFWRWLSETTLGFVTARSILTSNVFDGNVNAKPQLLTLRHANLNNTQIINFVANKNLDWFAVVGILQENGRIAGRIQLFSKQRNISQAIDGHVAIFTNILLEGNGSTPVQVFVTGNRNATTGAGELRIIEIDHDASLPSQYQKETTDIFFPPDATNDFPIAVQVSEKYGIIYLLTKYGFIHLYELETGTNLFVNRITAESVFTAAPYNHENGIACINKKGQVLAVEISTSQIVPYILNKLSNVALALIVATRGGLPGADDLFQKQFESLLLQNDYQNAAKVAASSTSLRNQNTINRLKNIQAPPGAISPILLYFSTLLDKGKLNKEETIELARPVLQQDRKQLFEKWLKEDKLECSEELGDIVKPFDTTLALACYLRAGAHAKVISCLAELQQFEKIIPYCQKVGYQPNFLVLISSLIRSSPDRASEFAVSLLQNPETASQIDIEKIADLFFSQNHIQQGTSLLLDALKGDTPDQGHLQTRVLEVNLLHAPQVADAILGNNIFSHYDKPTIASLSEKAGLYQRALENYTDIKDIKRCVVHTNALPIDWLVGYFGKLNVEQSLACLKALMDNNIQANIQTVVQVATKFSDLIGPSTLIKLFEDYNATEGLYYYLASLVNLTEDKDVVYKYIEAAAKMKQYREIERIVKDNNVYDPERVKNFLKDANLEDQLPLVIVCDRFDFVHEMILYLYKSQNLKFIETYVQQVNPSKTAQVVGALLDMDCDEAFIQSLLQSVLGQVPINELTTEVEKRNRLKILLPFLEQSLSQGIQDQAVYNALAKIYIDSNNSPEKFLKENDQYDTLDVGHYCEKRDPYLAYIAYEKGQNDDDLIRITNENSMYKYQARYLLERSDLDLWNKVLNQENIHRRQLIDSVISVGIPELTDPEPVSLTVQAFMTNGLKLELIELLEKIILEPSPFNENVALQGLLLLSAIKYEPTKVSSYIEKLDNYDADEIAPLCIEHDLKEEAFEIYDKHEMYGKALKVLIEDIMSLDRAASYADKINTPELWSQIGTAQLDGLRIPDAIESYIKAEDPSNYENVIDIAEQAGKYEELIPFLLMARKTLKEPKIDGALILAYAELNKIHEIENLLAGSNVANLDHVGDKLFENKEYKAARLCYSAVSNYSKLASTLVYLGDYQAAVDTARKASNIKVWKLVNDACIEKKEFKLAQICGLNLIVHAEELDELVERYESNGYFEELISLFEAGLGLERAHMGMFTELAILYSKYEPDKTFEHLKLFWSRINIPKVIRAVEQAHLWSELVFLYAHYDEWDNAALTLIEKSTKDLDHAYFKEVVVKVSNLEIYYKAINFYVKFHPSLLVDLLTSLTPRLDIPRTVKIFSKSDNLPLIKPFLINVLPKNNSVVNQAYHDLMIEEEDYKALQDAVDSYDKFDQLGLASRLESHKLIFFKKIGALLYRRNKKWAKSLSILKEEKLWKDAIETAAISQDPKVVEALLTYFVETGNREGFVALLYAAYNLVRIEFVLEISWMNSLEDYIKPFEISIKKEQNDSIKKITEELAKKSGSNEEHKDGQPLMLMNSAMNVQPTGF
UniProt P10080, sequence (P10080 whole entry): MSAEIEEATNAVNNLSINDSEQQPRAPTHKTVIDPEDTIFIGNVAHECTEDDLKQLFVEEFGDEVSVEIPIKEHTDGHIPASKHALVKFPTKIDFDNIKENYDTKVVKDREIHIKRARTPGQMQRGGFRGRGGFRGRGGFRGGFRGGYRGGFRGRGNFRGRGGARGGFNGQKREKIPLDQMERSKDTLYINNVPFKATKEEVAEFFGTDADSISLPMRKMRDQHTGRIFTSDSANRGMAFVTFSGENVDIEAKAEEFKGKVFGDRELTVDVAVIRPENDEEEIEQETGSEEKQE
UniProt P11484, sequence (P11484 whole entry): as the sequence (P40150 whole entry) above, with Q49E, I413M, V435C, S436A counted along it

- interaction score (Cdc10): 0.31
- interaction score (Syp1): 0.338
- interaction score (Bbc1): 0.562
- interaction score (Lsb3): 0.487
- interaction score (Bmh1): 0.838
- interaction score (Sla1): 0.309
- interaction score (Yor1): 0.254
- interaction score (Ssa1): 0.903
- interaction score (Pab1): 0.805
- interaction score (Arc40): 0.952
- interaction score (Tif4631): 0.687
- interaction score (Nap1): 0.463
- interaction score (Ygl242c): 0.949
- interaction score (Smi1): 0.551
- interaction score (Las17): 0.785
- interaction score (Tdh3): 0.968
- interaction score (Arc18): 0.825
- interaction score (Ssz1): 0.848
- interaction score (Sla2): 0.473
- interaction score (Cmd1): 0.278
- interaction score (Chc1): 0.589
- interaction score (Aim21): 0.647
- interaction score (Abp1): 0.878
- interaction score (Ssb1): 0.935
- interaction score (Pfk1): 0.862
- interaction score (Arc19): 0.655
- interaction score (Sbp1): 0.83
- interaction score (Sfk1): 0.545
- interaction score (Osh2): 0.352
- interaction score (Pkh2): 0.0507
- interaction score (Sac6): 0.793
- interaction score (Mid2): 0.827
- interaction score (Rvs167): 0.273
- interaction score (Bzz1): 0.701
- interaction score (Hsp104): 0.77
- interaction score (Pan1): 0.87
- interaction score (Cdc3): 0.353
- interaction score (Hek2): 0.351
- interaction score (Srv2): 0.522
- interaction score (Myo5): 0.862
- interaction score (Arc15): 0.887
- interaction score (Ssb2): 0.938
- interaction score (Ste20): 0.718
- interaction score (Ysc84): 0.318
- interaction score (Vrp1): 0.855
Substance: Myo5 with SH3 AncD (from UniProt Q04439)

From publication doi:10.1101/2023.03.09.531510
